The series concerns Nla type I-C Cascade + Cas3 expressed in E. coli (Neisseria lactamica). Description: cell_activity. The note with it: PAM 5'-TTC; E. coli plasmid interference.

With “native CRISPR spacer 1 crRNA ; spacer 1 target with 5'-TTC PAM”, the activity (fold reduction in colony count) was 1000.

These data come from patent US20230287457.
